From PMC10904854, “A druggable conformational switch in the c-MYC transactivation domain” (Nature Communications, 2024)

What was measured:
[1] = biological target: T1, Recombinant human TATA binding protein (ab81897, Abcam) (human); assay: native MS; mixture of coreMYC (6) and full-length TBP (10; concentrations printed as mM), ammonium acetate (TBP exchanged into 1 M), no EGCG, sample cone 50 V; conditions: both partners purified
T1 construct: also called TBP; full-length, human TBP; source: bought: Abcam (ab81897)
T1 chain: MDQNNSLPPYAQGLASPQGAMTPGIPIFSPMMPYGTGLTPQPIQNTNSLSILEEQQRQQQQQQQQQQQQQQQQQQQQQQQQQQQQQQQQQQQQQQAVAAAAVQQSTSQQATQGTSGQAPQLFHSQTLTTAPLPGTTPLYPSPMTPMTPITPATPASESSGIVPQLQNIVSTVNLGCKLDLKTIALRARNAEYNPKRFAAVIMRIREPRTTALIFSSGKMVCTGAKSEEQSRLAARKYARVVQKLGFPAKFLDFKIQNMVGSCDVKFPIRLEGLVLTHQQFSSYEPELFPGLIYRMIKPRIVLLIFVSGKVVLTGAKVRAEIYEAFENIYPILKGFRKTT

[2] = biological target: T2, TRRAP_(2038-2087) synthetic peptide (N-terminal acetyl (Ac-), C-terminal amide (-NH2)); assay: native MS; equimolar mixture, 15.5 uM coreMYC and 15 uM TRRAP_(2038-2087) peptide in 100 mM ammonium acetate, no EGCG, sample cone 10 V; conditions: both partners purified
T2 construct: transformation/transcription domain-associated protein (TRRAP), residues 2038-2087; also called TRRAP peptide; source: synthetic peptide (GenScript)
T2 peptide: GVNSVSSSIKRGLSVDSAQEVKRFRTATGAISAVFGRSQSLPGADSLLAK

B1: MGHis6-coreMYC (c-MYC residues 101-150) (peptide)
chain: MVTELLGGDMVNQSFICDPDDETFIKNIIIQDCMWSGFSAAAKLVSEKLA
notes: c-MYC, residues 101-150 (coreMYC); Cloned into pET-26b(+); also called MYC_(101-150); COnformational REgulator of c-MYC; source: E. coli BL21 (DE3), purified in-house (solubilised from the pellet in urea, His SpinTrap column); not shown: MGHis6, N-terminal, kept
[1]
  stoichiometry N: 1
[2]
  stoichiometry N: 1
